The supplement of paper PMC12764529
± gives the half width of the 95% confidence interval.

test: folding stability dG unfold (combined trypsin and chymotrypsin); higher = more stable
In short: (§1)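 Mini-proteins designed to be under 80 residues and free of cysteine were carried in a PA-tagged cDNA display construct and digested with trypsin and with chymotrypsin. Each protease was applied at 11 threefold-diluted concentrations, alongside a no-protease condition, before sequencing. K50 came from Bayesian fitting of the sequencing counts, and unfolding free energy was obtained by comparing it with a sequence-predicted unfolded-state K50 and a shared folded-state K50, for each protease separately or for both together. Designs were retained only if their AlphaFold2 dimer inter-PAE exceeded 15.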

Point of comparison: “SAGGMKIEKIFSSEEEAKAAAEKIKNETPEGKELKIEISKIPLKENLPPESPEILDEERYIVKVELPSAGGS [r16_795_JUSTAS]”, “folding stability dG unfold” value 0.467 ± 0.24 kcal/mol. Against it:
- SAGGSAGGSAIWIPSPEAADEIMDILAKKNGYKINIEPIGQDEDGGMVYEIEIVPPGQPLTSAGGSAGGSAG [r3_59_TrROS] — within error, 0.484 ± 0.22 kcal/mol
- SAGPTVRIRFAGEEEIEVEVGEELEIRLPDGSVVRIRVKPDGTVTVTRPDGSEVELEDVDEVEIEVFPASAG [r5_869_TrROS_Hall] — higher, 3.4 ± 0.2 kcal/mol
- SAGGMKVKKIPVIVKILRKKDKKPIKEIPALAYKVDDKIYLVFEKPKDIKIAKEIAEKTGLPIEIYPSAGGS [r16_327_TrMRF] — higher, 1.66 ± 0.066 kcal/mol
- SAGGSAGGSAGKVELIETEDKLYLVVEVDGKKEVIEVSKEELEELLAALPPDAKVTILKPSAGGSAGGSAGG [r11_374_TrROS_Hall] — higher, 2.77 ± 0.16 kcal/mol
- SAGGRFYFEAKDPSITPEELRAALEEAFGVKFHRIKPVEPLPDGMLYEVEIPEIGGHFDVSAEEIEKLLSAG [r5_550_TrMRF] — higher, 1.56 ± 0.16 kcal/mol
- SAGGSAGGSAGGEKTIRITVKNENGETLEIEVSEEDAEELLKALEDAGISLEEITRIEPVSAGGSAGGSAGG [r7_745_TrROS_Hall] — higher, 1.8 ± 0.15 kcal/mol
- SAGMPPPEEVFVVKVRFDGKELTLVVRVPPGMSAEEVAKKLAEELRKKFGPDIEVEVRRVSREELLEALSAG [r5_583_TrROS_Hall] — higher, 3.23 ± 0.18 kcal/mol
- SAGGKKVVIVFDVENLTPEQIRELVRKAIESLPDPENVVIVANVTSPATVEELAELAKEHPEVKFVVGSAGG [r13_718_TrMRF] — higher, 3.56 ± 0.12 kcal/mol
- SAGGSAGGSAKIEVEVTPLPGNKVLKIIKFENGEYIIEVFYFDPETGKIYSESEIISEEELLSAGGSAGGSA [r18_325_TrMRF] — higher, 2.05 ± 0.13 kcal/mol
- SAGGMPVRVLITYESGEIPVTIPVDPNKVVEAEVELEDKTVKITVDPKAKTIKVDAPPSFKFEVLDPSAGGS [r16_761_JUSTAS] — within error, 0.277 ± 0.18 kcal/mol
- SAGGMTLTLVLEANPPEAVEVAVARLLRELGFPDELKIEIDPVGDDKGRIIYPVTIEVNVPELAEKASAGGS [r8_85_TrMRF] — higher, 2.41 ± 0.13 kcal/mol
- SAGGIIPIENASWDELLNALKEAAEKGDPNVTITFQDPGRPYWIQIDPDENNIEVEHPNGETWRFKISAGGS [r16_481_TrROS] — higher, 0.905 ± 0.18 kcal/mol
- SAGGSAGGSAGYISIMIFFVLPDGYAIMVKYTFELPPNGNPKIENIEIHVMKLPPGEPIFSAGGSAGGSAGG [r11_517_TrROS] — higher, 5.13 ± 0.3 kcal/mol
- SAGGFKEIKKKLGVKKEDKVILDLEVNFGKKPKFFKVEFEVDKLEEIVKELGIPKENLKIVKAVVIKESAGG [r13_681_TrMRF] — within error, 0.706 ± 0.13 kcal/mol
- KYELVATLSRPNPETGTVVNVSVYRFEDGSYRVLVDVSTFYRTPDGSLRTSSSRAVFLVPEDVDPRELVESS [r1_243_TrMRF] — higher, 3.17 ± 0.11 kcal/mol
- SAGGSAGGSASLSPDEEVEITDPANGTKYKVTKLPDGTVLLENPETGETYVRTDSNDWKLTSAGGSAGGSAG [r3_96_JUSTAS] — higher, 0.932 ± 0.15 kcal/mol
- SAGGSAGGSAGGSKTIEIELPGMSPEEIAAAIAEELGLDDVKITVERTEDGLLRVTIEVSAGGSAGGSAGGS [r4_408_TrROS_Hall] — higher, 1.76 ± 0.057 kcal/mol
- SAKKYIIRVKVKINGKEYEIEIEADSLEEALAKLKEELKKLFPGEKIEEVKIEVYDAKTGEKKEITLKLSAG [r14_54_TrROS_Hall] — higher, 4 ± 0.35 kcal/mol
- SAGGSAGGMVLRITLPNGEVIEIPLEELGLSEEERKRRLAELLAEELRKLFPGKEIKVEVVELPSAGGSAGG [r6_164_TrROS_Hall] — higher, 3.83 ± 0.14 kcal/mol
- SAGGSAGGSNKPVYFRAKIRNPDGKPIGEIEIPAKFDSLEDARSFAENLAKDLPGYKVEIELVSAGGSAGGS [r20_201_TrROS] — higher, 1.77 ± 0.081 kcal/mol
- SAGGSAGGEKPVVTRLELVETEEGLVRLRVELPDGELVEERRFPTLEEALAALPPGAKVEIVPLSAGGSAGG [r6_492_TrROS_Hall] — higher, 1.7 ± 0.032 kcal/mol
- SAGGKKIKVEVKIEIKIEKNPDGSYTIRIKITVKVTNENGEKFEVKVELEITLSEEELEKLKKLLEELSAGG [r13_412_TrROS_Hall] — higher, 3.5 ± 0.39 kcal/mol
- SMPRLVATPRPDGSVLVLLEAPPERPEEIAEEIRERLGVPLRVVRIEPVPERVGDRPRLRYRVLIEVDVRSA [r9_431_TrMRF] — higher, 0.976 ± 0.095 kcal/mol
- SAGRIEVYQDPNMLRVIEIPLPNGREIVIYRPPGYYHIEIENPNNNKQIPIMIPMEPGDIKKIIKEFINSAG [r5_820_TrROS] — higher, 1.33 ± 0.11 kcal/mol
- SMDFKENQSFYITEITDDEVTFIFNNKPYKFPKEFINSKDTIITIYNGKIKEIKKPKPLKLHPEEIKKLSSA [r9_842_TrMRF] — within error, 1.04 ± 0.36 kcal/mol
- SAGGSAGGSMLPLPIESIEVVPRRAPGGKTYYVAFIRLKADGKPLVIEFEADNPGEALEKLEASAGGSAGGS [r20_238_TrMRF] — higher, 1.34 ± 0.14 kcal/mol
- SAGGSAGGSAGSYPIEYIPAPPDRLWLIDPKNGKIYEIYLDPERGEYSFEEIKEFPLGLESAGGSAGGSAGG [r11_352_JUSTAS] — higher, 1.57 ± 0.1 kcal/mol
- SAGGSAMTITEDGTLTLEIKVPEDAPEATVKVTVLTDGKTLGEADPATGKVTLKVPPDVEVKVEVASAGGSA [r15_180_TrMRF] — higher, 1.69 ± 0.13 kcal/mol
- SITIKIPLKPGYPYALRIHFYNPNGKPREMDMNVTRKPDGEVEIPIKIPDKDIPPGQDIRIQSIEIYPMKSA [r9_359_TrROS] — higher, 1.99 ± 0.26 kcal/mol
- SAGMMVKVEIEFPLTLTTTEKVGTGPNGIPVFETREEIVVITFRATVPENPEEVAAAKEEAKAVAEALSSAG [r14_223_JUSTAS] — higher, 1.89 ± 0.2 kcal/mol
- PLVLRLPDGAEAVRVEFFPERNTVVAFFRAPDRLLVVEVRFEPVGGGLLAPVRVRALPVPPTPEQLRLLAES [r1_154_TrMRF] — higher, 2.17 ± 0.093 kcal/mol
- SAGGSAGGSAKPNNAELVKVTYDPETGDFYAFYKIKNTDTVYVLRFNKDGTVEVKEYKFSEASAGGSAGGSA [r18_521_TrMRF] — higher, 3.68 ± 0.17 kcal/mol
- SAGGSAMTKEEAKEYAEKRVKEEHPGWTVLGVEVTELPGKEVLTKVTVKPPENPDKTLEFEFKFPLSAGGSA [r15_627_JUSTAS] — higher, 2.54 ± 0.072 kcal/mol
- SAGGSAGGSSVEVTEDPSTGKLTVTVPPDLTSVTIKEKDKTITIPLPPGASITLPSGTVTVALSAGGSAGGS [r20_26_JUSTAS] — higher, 0.935 ± 0.1 kcal/mol
- SAGGSAGGSAGGKIKILKKNKTKEEIKKELAEKYNVKKIEIKPIKGNTYLVEIEVEPEESAGGSAGGSAGGS [r10_1219_TrMRF] — within error, 0.292 ± 0.25 kcal/mol
- SAGGSAPVTLETEFFGENGLLVRTEAVVDPATGEVTVRTETFPVITGPADNPDVVKKLLEEAGIDASAGGSA [r2_304_TrMRF] — within error, 0.887 ± 0.23 kcal/mol
- SAGGSAMITVKLEGKPVTVEILSREPKGRLVKAQAVVHRPDDGTEKTVSGLLSEEEIEKAIEEALASAGGSA [r15_944_JUSTAS] — lower, -0.15 ± 0.12 kcal/mol
- SAGGSAGMPSVPVERTVTVTVVDAEGNLVGTVTLTLTFPGGVSEEEREAAIAAAIEAAVPPAGVVSSAGGSA [r15_310_JUSTAS] — higher, 2.41 ± 0.076 kcal/mol
- SAGGSANNPKPRIIEIPIQFDWPPGDPQQMRNLAETIADEFSDPGYRVEIDEFTPDYFMFNIKIEWSAGGSA [r15_563_TrROS] — higher, 2.72 ± 0.12 kcal/mol
- SAGGSAGGSAGMPPPVVVEPKRTSVVPESGLVIIPVTVFNPANGKATLTTYLYDPATGKLVLSAGGSAGGSA [r18_228_JUSTAS] — higher, 1.72 ± 0.12 kcal/mol
- SAGGSMISTLSESVDPAKNTTYYLNLYTEGSRAYGALVTVTTDPATGTKTITTKFPALPEVTTTETVASAGG [r13_615_JUSTAS] — within error, 0.551 ± 0.034 kcal/mol

test: folding stability dG unfold from chymotrypsin proteolysis; higher = more stable
In short: as §1

Point of comparison: “SAGGKKVVIVFDVENLTPEQIRELVRKAIESLPDPENVVIVANVTSPATVEELAELAKEHPEVKFVVGSAGG [r13_718_TrMRF]”, “folding stability dG unfold” value 3.45 ± 0.085 kcal/mol. Against it:
- SAGGSAGGSAIWIPSPEAADEIMDILAKKNGYKINIEPIGQDEDGGMVYEIEIVPPGQPLTSAGGSAGGSAG [r3_59_TrROS] — lower, 0.397 ± 0.16 kcal/mol
- SAGPTVRIRFAGEEEIEVEVGEELEIRLPDGSVVRIRVKPDGTVTVTRPDGSEVELEDVDEVEIEVFPASAG [r5_869_TrROS_Hall] — lower, 3.21 ± 0.076 kcal/mol
- SAGGMKVKKIPVIVKILRKKDKKPIKEIPALAYKVDDKIYLVFEKPKDIKIAKEIAEKTGLPIEIYPSAGGS [r16_327_TrMRF] — lower, 2.02 ± 0.062 kcal/mol
- SAGGSAGGSAGKVELIETEDKLYLVVEVDGKKEVIEVSKEELEELLAALPPDAKVTILKPSAGGSAGGSAGG [r11_374_TrROS_Hall] — lower, 2.49 ± 0.12 kcal/mol
- SAGGRFYFEAKDPSITPEELRAALEEAFGVKFHRIKPVEPLPDGMLYEVEIPEIGGHFDVSAEEIEKLLSAG [r5_550_TrMRF] — lower, 1.78 ± 0.077 kcal/mol
- SAGGSAGGSAGGEKTIRITVKNENGETLEIEVSEEDAEELLKALEDAGISLEEITRIEPVSAGGSAGGSAGG [r7_745_TrROS_Hall] — lower, 1.62 ± 0.098 kcal/mol
- SAGMPPPEEVFVVKVRFDGKELTLVVRVPPGMSAEEVAKKLAEELRKKFGPDIEVEVRRVSREELLEALSAG [r5_583_TrROS_Hall] — lower, 2.95 ± 0.12 kcal/mol
- SAGGSAGGSAKIEVEVTPLPGNKVLKIIKFENGEYIIEVFYFDPETGKIYSESEIISEEELLSAGGSAGGSA [r18_325_TrMRF] — lower, 2.36 ± 0.044 kcal/mol
- SAGGMPVRVLITYESGEIPVTIPVDPNKVVEAEVELEDKTVKITVDPKAKTIKVDAPPSFKFEVLDPSAGGS [r16_761_JUSTAS] — lower, 0.257 ± 0.084 kcal/mol
- SAGGMTLTLVLEANPPEAVEVAVARLLRELGFPDELKIEIDPVGDDKGRIIYPVTIEVNVPELAEKASAGGS [r8_85_TrMRF] — lower, 2.62 ± 0.036 kcal/mol
- SAGGIIPIENASWDELLNALKEAAEKGDPNVTITFQDPGRPYWIQIDPDENNIEVEHPNGETWRFKISAGGS [r16_481_TrROS] — lower, 0.995 ± 0.14 kcal/mol
- SAGGSAGGSAGYISIMIFFVLPDGYAIMVKYTFELPPNGNPKIENIEIHVMKLPPGEPIFSAGGSAGGSAGG [r11_517_TrROS] — higher, 5.35 ± 0.17 kcal/mol
- SAGGFKEIKKKLGVKKEDKVILDLEVNFGKKPKFFKVEFEVDKLEEIVKELGIPKENLKIVKAVVIKESAGG [r13_681_TrMRF] — lower, 1.16 ± 0.082 kcal/mol
- KYELVATLSRPNPETGTVVNVSVYRFEDGSYRVLVDVSTFYRTPDGSLRTSSSRAVFLVPEDVDPRELVESS [r1_243_TrMRF] — within error, 3.57 ± 0.081 kcal/mol
- SAGGSAGGSASLSPDEEVEITDPANGTKYKVTKLPDGTVLLENPETGETYVRTDSNDWKLTSAGGSAGGSAG [r3_96_JUSTAS] — lower, 0.88 ± 0.18 kcal/mol
- SAGGSAGGSAGGSKTIEIELPGMSPEEIAAAIAEELGLDDVKITVERTEDGLLRVTIEVSAGGSAGGSAGGS [r4_408_TrROS_Hall] — lower, 1.81 ± 0.049 kcal/mol
- SAKKYIIRVKVKINGKEYEIEIEADSLEEALAKLKEELKKLFPGEKIEEVKIEVYDAKTGEKKEITLKLSAG [r14_54_TrROS_Hall] — higher, 4.2 ± 0.16 kcal/mol
- SAGGSAGGMVLRITLPNGEVIEIPLEELGLSEEERKRRLAELLAEELRKLFPGKEIKVEVVELPSAGGSAGG [r6_164_TrROS_Hall] — higher, 4 ± 0.057 kcal/mol
- SAGGSAGGSNKPVYFRAKIRNPDGKPIGEIEIPAKFDSLEDARSFAENLAKDLPGYKVEIELVSAGGSAGGS [r20_201_TrROS] — lower, 1.38 ± 0.084 kcal/mol
- SAGGMKIEKIFSSEEEAKAAAEKIKNETPEGKELKIEISKIPLKENLPPESPEILDEERYIVKVELPSAGGS [r16_795_JUSTAS] — lower, 0.116 ± 0.42 kcal/mol
